Measured values from patent US20240398949A1 (OSLO UNIVERSITETSSYKEHUS HF, published 2024).

Tests used:
[1] = target: T1, Peptide 2 of Table 3 (15mer of the p95HER2 extracellular domain); test: peptide array on cellulose membrane, overlapping 15mers, signal intensity (area under curve), triplicate spots
T1 construct: Synthetic peptide immobilized on a cellulose membrane; also called KFPDEEGACQPCPIN
T1 peptide: KFPDEEGACQPCPIN

[2] = target: T2, Peptide 7 of Table 3 (15mer of the p95HER2 extracellular domain); test: as above
T2 construct: Synthetic peptide immobilized on a cellulose membrane
T2 peptide: VDLDDKGCPAEQRAS

[3] = target: T3, Peptide 4 of Table 3 (15mer of the p95HER2 extracellular domain); test: as above
T3 construct: Synthetic peptide immobilized on a cellulose membrane
T3 peptide: CQPCPINCTHSCVDL

[4] = target: T4, extracellular domain of p95HER2 peptide with a polyhistidine-tag in the C-terminus; test: SPR (Biacore T200, 25° C.), antibody immobilized on CM5 chip, peptide as analyte 0.6 to 2500 nM, 1:1 model
T4 construct: Used as analyte in SPR
Procedure: SPR was performed as described previously in Gomes & Andreu, Journal of Immunological Methods 259:217-230, 2002. […] The extracellular domain of p95HER2 peptide with a polyhistidine-tag in the C-terminus (SEQ ID NO: 19) was used as analyte with serial dilutions from 0.6 to 2500 nM. […] (SEQ ID NO: 19)
Kinetics of molecular interaction were processed by global curve fitting to the 1:1 bimolecular interaction model. Biacore T200 (GE Healthcare) was used to perform the experiment and all procedures were conducted at 25° C.

[5] = target: T5, peptide 27 (FIGURE 3 d/e); test: peptide array on cellulose membrane, double-alanine substitution series, signal intensity (area under curve), duplicate spots
T5 peptide: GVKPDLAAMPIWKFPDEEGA

[6] = target: T6, peptide 28 (FIGURE 3 d/e); test: as above
T6 peptide: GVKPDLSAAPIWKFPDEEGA

[7] = target: T7, peptide 31 (FIGURE 3 d/e); test: as above
T7 construct: marked IW under the bar
T7 peptide: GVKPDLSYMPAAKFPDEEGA

[8] = target: T8, peptide 30 (FIGURE 3 d/e); test: as above
T8 construct: marked PI under the bar
T8 peptide: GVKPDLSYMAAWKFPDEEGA

[9] = target: T9, peptide 22 (FIGURE 3 d/e); test: as above
T9 peptide: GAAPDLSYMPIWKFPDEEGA

[10] = target: T10, peptide 29 (FIGURE 3 d/e); test: as above
T10 construct: marked MP under the bar
T10 peptide: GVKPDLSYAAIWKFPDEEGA

[11] = target: T11, peptide 23 (FIGURE 3 d/e); test: as above
T11 peptide: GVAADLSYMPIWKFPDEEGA

[12] = target: T12, peptide 33 (FIGURE 3 d/e); test: as above
T12 construct: marked KF under the bar
T12 peptide: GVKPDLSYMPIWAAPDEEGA

[13] = target: T13, peptide 34 (FIGURE 3 d/e); test: as above
T13 construct: marked FP under the bar
T13 peptide: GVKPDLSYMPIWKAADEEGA

[14] = target: T14, peptide 38 (FIGURE 3 d/e); test: as above
T14 peptide: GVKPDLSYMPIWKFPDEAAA

[15] = target: T15, peptide 26 (FIGURE 3 d/e); test: as above
T15 peptide: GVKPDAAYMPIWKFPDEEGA

[16] = target: T16, peptide 21 (FIGURE 3 d/e); test: as above
T16 peptide: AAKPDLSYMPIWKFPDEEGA

[17] = target: T17, peptide 25 (FIGURE 3 d/e); test: as above
T17 peptide: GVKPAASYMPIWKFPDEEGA

[18] = target: T18, peptide 39 (FIGURE 3 d/e); test: as above
T18 peptide: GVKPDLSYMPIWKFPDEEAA

[19] = target: T19, peptide 24 (FIGURE 3 d/e); test: as above
T19 peptide: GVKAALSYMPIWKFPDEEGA

[20] = target: T20, peptide 32 (FIGURE 3 d/e); test: as above
T20 construct: marked WK under the bar
T20 peptide: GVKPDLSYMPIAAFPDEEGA

[21] = target: T21, peptide 35 (FIGURE 3 d/e); test: as above
T21 construct: marked PD under the bar
T21 peptide: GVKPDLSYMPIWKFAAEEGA

[22] = target: T22, peptide 36 (FIGURE 3 d/e); test: as above
T22 construct: marked DE under the bar
T22 peptide: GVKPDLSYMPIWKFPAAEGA

binding result [1]: no binding
binding result [2]: no binding
binding result [3]: no binding
Kd [4]: 2 nM
binding result [5]: binds
binding result [6]: binds
binding result [7]: no binding
binding result [8]: binds
binding result [9]: binds
binding result [10]: binds
binding result [11]: binds
binding result [12]: binds
binding result [13]: binds
binding result [14]: binds
binding result [15]: binds
binding result [16]: binds
binding result [17]: binds
binding result [18]: binds
binding result [19]: binds
binding result [20]: no binding
binding result [21]: binds
binding result [22]: binds
B1: Oslo-2 antibody (monoclonal antibody against p95HER2) (antibody, V domains shown)
VH: EVQILETGGGLVKPGGSLRLSCATSGFNFNDYFMNWVRQAPGKGLEWIAQIRNKNYNYATYFAESLEGRFTISRDDSKSSVYLQVNSLRAEDTALYYCTELRYDYWGQGVMVTVSS
VL: DIVMTQSPFSLAVSEGEMVTINCKSSQSLLSSGNQKNNLAWYQQKPGQSPKLLIYYASTRQSGVPDRFIGSGSGTDFTLTISDVQAEDLADYYCLQHYSSPYTFGAGTKLELK
notes: Monoclonal antibody from a rat hybridoma (mClone 1), detected with goat anti-rat-PE; also called the antibody of interest; the antibody
